From article PMC8809517, “Cofactor-independent RNA editing by a synthetic S-type PPR protein”

T1: GFP-9S library array, motif 4 ND N98F;D124L (synthetic construct, N98F;D124L)
T1 chain: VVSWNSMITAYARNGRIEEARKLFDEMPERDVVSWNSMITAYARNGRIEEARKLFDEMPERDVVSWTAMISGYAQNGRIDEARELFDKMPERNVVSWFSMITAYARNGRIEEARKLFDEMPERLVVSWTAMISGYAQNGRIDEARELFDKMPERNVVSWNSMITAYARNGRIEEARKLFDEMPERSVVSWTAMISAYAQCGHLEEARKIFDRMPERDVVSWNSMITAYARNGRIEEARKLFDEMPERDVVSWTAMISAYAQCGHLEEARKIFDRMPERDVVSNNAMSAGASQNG

T2: GFP-9S library array, motif 4 ND N98I;D124T (synthetic construct, N98I;D124T)
T2 chain: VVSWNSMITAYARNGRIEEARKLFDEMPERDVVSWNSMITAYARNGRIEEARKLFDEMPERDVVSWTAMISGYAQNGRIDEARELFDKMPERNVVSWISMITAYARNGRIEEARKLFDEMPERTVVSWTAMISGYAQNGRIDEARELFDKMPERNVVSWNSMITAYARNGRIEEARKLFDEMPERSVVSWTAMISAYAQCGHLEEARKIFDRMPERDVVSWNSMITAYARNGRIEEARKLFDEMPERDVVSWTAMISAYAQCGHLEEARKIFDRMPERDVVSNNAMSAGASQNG

T3: GFP-9S library array, motif 4 ND N98H;D124N (synthetic construct, N98H;D124N)
T3 chain: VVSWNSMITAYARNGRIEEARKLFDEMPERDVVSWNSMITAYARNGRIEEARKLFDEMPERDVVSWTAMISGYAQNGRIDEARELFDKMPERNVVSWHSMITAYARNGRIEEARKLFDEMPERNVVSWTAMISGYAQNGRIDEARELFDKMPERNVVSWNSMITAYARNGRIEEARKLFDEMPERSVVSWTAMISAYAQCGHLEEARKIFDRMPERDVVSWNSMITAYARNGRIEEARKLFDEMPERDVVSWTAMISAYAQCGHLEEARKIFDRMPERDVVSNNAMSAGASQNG

T4: GFP-9S library array, motif 4 ND N98C;D124N (synthetic construct, N98C;D124N)
T4 chain: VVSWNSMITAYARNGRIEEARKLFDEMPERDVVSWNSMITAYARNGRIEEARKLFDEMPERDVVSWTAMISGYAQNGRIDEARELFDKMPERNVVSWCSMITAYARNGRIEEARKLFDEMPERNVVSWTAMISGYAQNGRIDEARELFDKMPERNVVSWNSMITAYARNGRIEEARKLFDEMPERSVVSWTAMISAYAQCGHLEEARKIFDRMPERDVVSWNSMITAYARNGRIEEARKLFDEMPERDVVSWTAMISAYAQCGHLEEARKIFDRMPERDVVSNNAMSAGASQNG

T5: GFP-9S library array, motif 4 ND N98K;D124R (synthetic construct, N98K;D124R)
T5 chain: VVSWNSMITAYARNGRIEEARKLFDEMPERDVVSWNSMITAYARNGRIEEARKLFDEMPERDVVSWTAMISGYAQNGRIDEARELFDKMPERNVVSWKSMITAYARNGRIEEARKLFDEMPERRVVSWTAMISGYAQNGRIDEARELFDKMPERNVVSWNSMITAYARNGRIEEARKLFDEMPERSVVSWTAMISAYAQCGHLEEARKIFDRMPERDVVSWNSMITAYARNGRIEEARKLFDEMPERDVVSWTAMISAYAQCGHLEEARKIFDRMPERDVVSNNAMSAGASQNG


Assays:
Assay in all cases: high-throughput RNA pulldown from lysate on Ni-NTA beads; HRP: 50 mM Tris pH 8, 150 mM NaCl, 1 mM beta-mercaptoethanol, 50 ug/ml BSA, 3 ug/ml yeast RNA, 0.5% heparin; ITC and FP: Tris pH 8, 200 mM KCl, 5% glycerol; MST: 50 mM Tris pH 8, 200 mM NaCl, 1 mM DTT, BSA, heparin, 0.05% Tween 20
Conditions in all cases: tags: N-terminal His-eGFP
[1] = molecular target: T1, GFP-9S library array, motif 4 ND …
[2] = molecular target: T2, GFP-9S library array, motif 4 ND …
[3] = molecular target: T3, GFP-9S library array, motif 4 ND …
[4] = molecular target: T4, GFP-9S library array, motif 4 ND …
[5] = molecular target: T5, GFP-9S library array, motif 4 ND …

| Binder | Kd ([1]; label: 5' IRDye 800CW) | Kd ([2]; label: 5' IRDye 800CW) | Kd ([3]; label: 5' IRDye 800CW) | Kd ([4]; label: 5' IRDye 800CW) | Kd ([5]; label: 5' IRDye 800CW) | Kd ([1]; label: 5' Cy5) | Kd ([2]; label: 5' Cy5) | Kd ([3]; label: 5' Cy5) | Kd ([4]; label: 5' Cy5) | Kd ([5]; label: 5' Cy5) |
| --- | --- | --- | --- | --- | --- | --- | --- | --- | --- | --- |
| AUUAAACGUGA (ssRNA) [IR-rpoA-A] | 232 nM | 158 nM | 189 nM | 45 nM | 139 nM | – | – | – | – | – |
| AUUAGACGUGA (ssRNA) [Cy5-rpoA-G] | – | – | – | – | – | 90.2 nM | 145 nM | 149 nM | 346 nM | 55.5 nM |
| AUUAUACGUGA (ssRNA) [IR-rpoA-U] | 166 nM | 59.1 nM | 30.8 nM | 152 nM | 66.9 nM | – | – | – | – | – |
| AUUACACGUGA (ssRNA) [Cy5-rpoA] | – | – | – | – | – | 76.3 nM | 141 nM | 36.1 nM | 213 nM | 42.9 nM |
